These results are taken from paper PMC3164844 (Proteins, 2011).

The target of one data set is GDPMK (Escherichia coli, UniProt P37128, E100A). Nature of the data set: X-ray crystal structure, […] Å. Type of data set: binding. Conditions: Mg2+; active site; co-crystallised at pH 8.5.
Substrate in the data set “phosphate release”: Nc1nc2c(ncn2[C@@H]2O[C@H](COP(=O)(O)OP(=O)(O)O[C@H]3O[C@H](CO)[C@@H](O)[C@H](O)[C@@H]3O)[C@@H](O)[C@H]2O)c(=O)[nH]1
Nature of the data set: phosphate release. The class given is biochemical, Escherichia coli. Conditions: Mg2+, pH 8.5, 37 °C.

The data set “SEC” deals with the molecule itself. The data set can be described thus: SEC.
The data set “crystal structure” concerns the molecule itself. The data set can be described thus: crystal structure.

Changes are numbered by the printed parent chain. Numbers in names are those of the source.

Chain of GDPMK (P37128 whole entry E100A): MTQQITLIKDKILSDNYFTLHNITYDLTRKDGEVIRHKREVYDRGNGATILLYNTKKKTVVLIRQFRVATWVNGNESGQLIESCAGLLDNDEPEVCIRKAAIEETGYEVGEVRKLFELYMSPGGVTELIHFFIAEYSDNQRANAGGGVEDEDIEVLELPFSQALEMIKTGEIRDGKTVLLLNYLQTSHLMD

As to `Nc1nc2c(ncn2[C@@H]2O[C@H](COP(=O)(O)OP(=O)(O)O[C@H]3O[C@H](CO)[C@@H](O)[C@H](O)[C@@H]3O)[C@@H](O)[C@H]2O)c(=O)[nH]1` [GDP-mannose], the “X-ray crystal structure, 2.45 Å” value on GDPMK is “The structure of the complex of the GDPMK E100A mutant with GDP-mannose and magnesium”.

B1: GDPMK, Nudix GDP-mannose hydrolase from E. coli (product of the gene yffH), wild type (enzyme, UniProt P37128 1-191, looked up)
chain: MTQQITLIKDKILSDNYFTLHNITYDLTRKDGEVIRHKREVYDRGNGATILLYNTKKKTVVLIRQFRVATWVNGNESGQLIESCAGLLDNDEPEVCIRKEAIEETGYEVGEVRKLFELYMSPGGVTELIHFFIAEYSDNQRANAGGGVEDEDIEVLELPFSQALEMIKTGEIRDGKTVLLLNYLQTSHLMD
For B1, in the data set “phosphate release”, the Km – broadly, the substrate concentration at which the rate is half of its maximum – came to 659 ± 65 µM and the kcat (in general, the maximal rate divided by the concentration of active sites) turned out to be 90.2 ± 6.7 s⁻¹. Further, the stoichiometry N (as a rule, the number of molecules, sites or subunits per partner or assembly) in “SEC” is 2.

B2: GDPMK (Escherichia coli K-12; E151A) (protein)
chain: B1 chain with E151A
B2: in the data set “phosphate release”, the Km worked out at 594 ± 140 µM and the kcat turned out to be 21.3 ± 4.6 s⁻¹.

B3: GDPMK E100A mutant (enzyme, E. coli, UniProt P37128 1-191, looked up)
chain: B1 chain with E100A
With B3, the binding result in the data set “crystal structure” was “binds”.

B4: GDPMK (Escherichia coli K-12; R44S) (protein)
chain: B1 chain with R44S
As to B4, the catalytic constant (kcat) in the data set “phosphate release” turned out to be 1.69 ± 0.12 s⁻¹.

B5: GDPMK (Escherichia coli K-12; K176A) (protein)
chain: B1 chain with K176A
For B5, the kcat in “phosphate release” was 0.11 ± 0.04 s⁻¹.

B6: GDPMK (Escherichia coli K-12; E149A) (protein)
chain: B1 chain with E149A
Turning to B6, in “phosphate release”, the Michaelis-Menten constant (Km) is 555 ± 85 µM and the kcat is 80.6 ± 6.3 s⁻¹.
